We go through 83 variants from the RNAGym collection of RNA variant scans (doi:10.1093/molbev/msab373).

To fix the notation:
B1: Azoarcus group I ribozyme (parent)
chain: GUGCCUUGCGCCGGGAAACCACGCAAGGGAUGGUGUCAAAUUCGGCGAAACCUAAGCGCCCGCCCGGGCGUAUGGCAACGCCGAGCCAAGCUUCGGCGCCUGCGCCGAUGAAGGUGUAGAGACUAGACGGCACCCACCUAAGGCAAACGCUAUGGUGAAGGCAUAGUCCAGGGAGUGGCGAAAGUCACACAAACCGG

The series covers variants of B1. In words: reverse-splicing fitness (ratio to wild type); higher = more active; in vitro selection; Mg2+ level not given. Put shortly: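 An in vitro group I ribozyme library with randomized positions was T7-transcribed and gel-purified. In triplicate, 10 pmol RNA in EPPS pH 7.5 was reacted with 50 pmoles of a 30-nt RNA substrate for 1 h at 37 °C across several added MgCl2 levels (1–48 mM), then stopped with EDTA. Products were reverse transcribed from a substrate-complementary primer, PCR-amplified and sequenced (HiSeq 4000). Fitness is a variant's read proportion after selection over that before, normalised to wild type.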
With A111G A120U A145U C150U, the reverse-splicing fitness stood at 0.584.

For the variant A111G A120U A145U C150A, the reverse-splicing fitness is 0.0903.

For the variant A111G A120U A145U C150G, the reverse-splicing fitness was determined as 0.105.

For A111G A120G C150U C169A U176A, the reverse-splicing fitness came to 0.0291.

On to A111G A120G C150U C169A U176G, for which the reverse-splicing fitness stood at 0.00588.

For the variant A111G A120G C150U C169A U176C, the reverse-splicing fitness was found to be 0.0419.

For the variant A111G A120U A145G C150G U176A, the reverse-splicing fitness was found to be 0.00779.

In the case of A111G A120U A145G C150G U176G, the reverse-splicing fitness amounted to 0.00403.

In the case of A111G A120U A145G C150G U176C, the reverse-splicing fitness was determined as 0.0188.

On to A111G A120G C150G C169G U176G, for which the reverse-splicing fitness came to 0.00386.

Regarding A111G A120G C150G C169G U176C, the reverse-splicing fitness was 0.00503.

As for A111G A120G C150G C169G U176A, the reverse-splicing fitness worked out at 0.0075.

As for A111G A120U A145U C169A U176A, the reverse-splicing fitness came out at 0.00236.

As to A111G A120U A145U C169A U176C, the reverse-splicing fitness was determined as 0.00348.

As to A111G A120U A145U C169A U176G, the reverse-splicing fitness was found to be 0.00131.

A111G A120U C150G C169G U176C: the reverse-splicing fitness turned out to be 0.00213.

For A111G A120U C150G C169G U176A, the reverse-splicing fitness worked out at 0.00427.

As to A111G A120U C150G C169G U176G, the reverse-splicing fitness is 0.00237.

For the variant A111G A120G C150U C169G U176C, the reverse-splicing fitness was 0.0735.

Regarding A111G A120G C150U C169G U176G, the reverse-splicing fitness amounted to 0.00531.

In the case of A111G A120G C150U C169G U176A, the reverse-splicing fitness is 0.0529.

As for A111G A120G C169A U176A, the reverse-splicing fitness turned out to be 0.0455.

For A111G A120G C169A U176G, the reverse-splicing fitness amounted to 0.00449.

A111G A120G C169A U176C: the reverse-splicing fitness was 0.0737.

Consider A111G A120U A145G C150U C169G, for which the reverse-splicing fitness came to 0.0623.

For A111G A120U A145G C150U C169U, the reverse-splicing fitness worked out at 0.111.

Turning to A111G A120U A145G C150U C169A, the reverse-splicing fitness came out at 0.00841.

Turning to A111G A120G C169U U176G, the reverse-splicing fitness was 0.011.

For the variant A111G A120G C169U U176C, the reverse-splicing fitness amounted to 0.0969.

As to A111G A120G C169U U176A, the reverse-splicing fitness turned out to be 0.0845.

Take A111G A120U C150U C169A U176A: the reverse-splicing fitness is 0.00336.

Consider A111G A120U C150U C169A U176C, for which the reverse-splicing fitness came to 0.00257.

A111G A120U C150U C169A U176G: the reverse-splicing fitness is 0.00227.

For the variant A111G A120U C150U C169U U176A, the reverse-splicing fitness is 0.016.

Turning to A111G A120U C150U C169U U176G, the reverse-splicing fitness stood at 0.0032.

As for A111G A120U C150U C169U U176C, the reverse-splicing fitness came out at 0.02.

For the variant A111G A120U A145G U176A, the reverse-splicing fitness stood at 0.344.

Consider A111G A120U A145G U176C, for which the reverse-splicing fitness amounted to 0.386.

With A111G A120U A145G U176G, the reverse-splicing fitness was 0.124.

Turning to A111G A120U A145G C169G U176G, the reverse-splicing fitness was determined as 0.00189.

On to A111G A120U A145G C169G U176C, for which the reverse-splicing fitness amounted to 0.0201.

Consider A111G A120U A145G C169G U176A, for which the reverse-splicing fitness came to 0.00934.

With A111G A120U A145C C150A U176G, the reverse-splicing fitness was 0.00839.

Consider A111G A120U A145C C150A U176C, for which the reverse-splicing fitness was 0.00924.

With A111G A120U A145C C150A U176A, the reverse-splicing fitness was 0.0179.

For the variant A111G A120U A145C C150G C169U U176C, the reverse-splicing fitness turned out to be 0.0023.

As for A111G A120U A145C C150G C169U U176G, the reverse-splicing fitness came out at 0.00225.

With A111G A120U A145C C150G C169U U176A, the reverse-splicing fitness worked out at 0.00272.

In the case of A111G A120G C150G, the reverse-splicing fitness amounted to 0.0248.

In the case of A111G A120G C150U, the reverse-splicing fitness stood at 0.156.

With A111G A120G C150A, the reverse-splicing fitness is 0.0324.

Regarding A111G A120U A145U C150U C169G U176A, the reverse-splicing fitness is 0.00842.

Regarding A111G A120U A145U C150U C169G U176C, the reverse-splicing fitness came to 0.009.

Consider A111G A120U A145U C150U C169G U176G, for which the reverse-splicing fitness was 0.00232.

As to A111G A145C C150A C169G, the reverse-splicing fitness is 0.0111.

For A111G A145C C150A C169A, the reverse-splicing fitness stood at 0.00859.

Regarding A111G A145C C150A C169A U176A, the reverse-splicing fitness was 0.0101.

A111G A145C C150A C169A U176G: the reverse-splicing fitness stood at 0.00629.

Take A111G A145C C150A C169A U176C: the reverse-splicing fitness was 0.00515.

Turning to A111G A120U A145C C150G U176C, the reverse-splicing fitness was 0.0153.

For the variant A111G A120U A145C C150G U176G, the reverse-splicing fitness was 0.0047.

Take A111G A120U A145C C150G U176A: the reverse-splicing fitness turned out to be 0.0114.

On to A111G A120U A145C C169U U176G, for which the reverse-splicing fitness was 0.00329.

Turning to A111G A120U A145C C169U U176A, the reverse-splicing fitness was determined as 0.0207.

A111G A120U A145C C169U U176C: the reverse-splicing fitness was 0.0146.

As to A111G A120G C150A C169G U176A, the reverse-splicing fitness was 0.0259.

As for A111G A120G C150A C169G U176G, the reverse-splicing fitness was determined as 0.00566.

Consider A111G A120G C150A C169G U176C, for which the reverse-splicing fitness turned out to be 0.0343.

Consider A111G A120U A145G C169A, for which the reverse-splicing fitness was 0.00517.

A111G A120U A145G C169U: the reverse-splicing fitness turned out to be 0.126.

Turning to A111G A120U A145G C169G, the reverse-splicing fitness was 0.087.

In the case of A111G A120U A145G C150U C169U U176G, the reverse-splicing fitness worked out at 0.00334.

A111G A120U A145G C150U C169U U176A: the reverse-splicing fitness is 0.0147.

As for A111G A120U A145G C150U C169U U176C, the reverse-splicing fitness came out at 0.0273.

Consider A111G A120U A145C C150U C169A U176A, for which the reverse-splicing fitness came out at 0.00259.

Turning to A111G A120U A145C C150U C169A U176C, the reverse-splicing fitness amounted to 0.00228.

Regarding A111G A120U A145C C150U C169A U176G, the reverse-splicing fitness amounted to 0.00196.

In the case of A111G A120U C169U U176C, the reverse-splicing fitness came to 0.0395.

For the variant A111G A120U C169U U176A, the reverse-splicing fitness was determined as 0.0277.

With A111G A120U C169U U176G, the reverse-splicing fitness was determined as 0.00411.

With A111G A120U C150U C169G U176G, the reverse-splicing fitness is 0.00215.

For A111G A120U C150U C169G U176C, the reverse-splicing fitness amounted to 0.0106.

With A111G A120U C150U C169G U176A, the reverse-splicing fitness worked out at 0.0102.
